Results reported in US20160145343A1 (UNIVERSITY OF PITTSBURGH OF THE COMMONWEALTH SYSTEM OF …, published 2016).
Where a chain is given by its changes, count along the chain named. Where no end group is shown, it is not given here. Galβ1‑3GalNAc = TF-antigen

B1: M16 (antibody, human IgG1, kappa, V domains shown)
VH: QVQLVESGGGLVKPGGSLRLSCAASGFTFSDYYMSWIRQAPGKGLEWVSYISSSGTTKYYADSVKGRFTISRDNAKNSLYLQMNSLRAEDTAVYYCVRENLGYCSGGSCFYYYYMDVWGKGTTVTVSS
VL: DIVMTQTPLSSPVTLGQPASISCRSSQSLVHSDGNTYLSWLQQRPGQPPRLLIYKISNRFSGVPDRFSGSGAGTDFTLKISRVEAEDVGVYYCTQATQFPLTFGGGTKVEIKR
notes: Human IgG
B2: M14 (antibody, human IgG1, kappa, V domains shown)
VH: B1 VH
VL: not shown
B3: M18 (antibody, human IgG1, kappa, V domains shown)
VH: B1 VH with T28I, N100D, L101I
VL: not shown
notes: Human IgG
B4: M8 (antibody, human IgG1, kappa, V domains shown)
VH: B1 VH with T56S, K58I, V97A, N100R, L101I, F110Y
VL: not shown
B5: M13 (antibody, human IgG1, kappa, V domains shown)
VH: B1 VH with L101I, S105T, S108N
VL: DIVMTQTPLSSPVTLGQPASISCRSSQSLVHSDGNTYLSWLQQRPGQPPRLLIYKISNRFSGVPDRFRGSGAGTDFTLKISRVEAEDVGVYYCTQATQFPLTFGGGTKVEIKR
notes: Human IgG
B6: M10 (antibody, human IgG1, kappa, V domains shown)
VH: B1 VH with F110Y
VL: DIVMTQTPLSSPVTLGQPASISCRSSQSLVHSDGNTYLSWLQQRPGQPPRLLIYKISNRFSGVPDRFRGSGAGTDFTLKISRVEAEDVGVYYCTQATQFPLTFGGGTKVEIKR
notes: Human IgG
B7: M17 (antibody, human IgG1, kappa, V domains shown)
VH: B1 VH with T28I, N100D, L101I
VL: not shown
B8: M23 (antibody, human IgG1, kappa, V domains shown)
VH: B1 VH with L101I, S105T, S108N
VL: not shown
B9: M12 (antibody, human IgG1, kappa, V domains shown)
VH: B1 VH with L101I, S105T, S108N
VL: not shown
notes: Human IgG
B10: M9 (antibody, human IgG1, kappa, V domains shown)
VH: B1 VH with F110Y
VL: not shown
notes: Human IgG
B11: M19 (antibody, human IgG1, kappa, V domains shown)
VH: B1 VH with T28I, N100D, L101I
VL: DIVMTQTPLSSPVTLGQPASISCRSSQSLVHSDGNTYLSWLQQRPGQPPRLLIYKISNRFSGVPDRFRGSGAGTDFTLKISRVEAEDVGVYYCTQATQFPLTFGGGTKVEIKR
notes: Human IgG
B12: M11 (antibody, human IgG1, kappa, V domains shown)
VH: B1 VH with S105T, S108N
VL: not shown
B13: M15 (antibody, human IgG1, kappa, V domains shown)
VH: B1 VH
VL: not shown
notes: Human IgG
B14: M6 (antibody, human IgG1, kappa, V domains shown)
VH: EVQLVESGGGLVQPGGSLRLSCAASGFTVSSNYMSWVRQAPGKGLEWVSVIYSGGSTYYADSVKGRFTISRDNSKNTLYLQMNSLRAEDTAVYYCARGSTNTYYYDSSGHPWGQGTMVTVSS
VL: not shown
notes: Human IgG
B15: M5 (antibody, human IgG1, kappa, V domains shown)
VH: B14 VH
VL: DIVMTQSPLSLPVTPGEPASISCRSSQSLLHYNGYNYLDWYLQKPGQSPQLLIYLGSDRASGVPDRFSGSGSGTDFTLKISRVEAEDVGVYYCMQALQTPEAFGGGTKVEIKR
notes: Human IgG
B16: M20 (antibody, human IgG1, kappa, V domains shown)
VH: EVQLVESGGGLVQPGGSLRLSCAASGFTFSSYWMHWVRQAPGKGLVWVSHINSDGSSTSYADSVKGRFTISRDNAKNTLYLQMNSLRAEDTAVYYCARELADWGQGTLVTVSS
VL: DVVMTQSPLSLPVTLGQPASISCRSSQSLVYSDGNTYLNWFQQRPGQSPRRLIYQVSNRDSGVPDRFSGSGSGTDFTLKIGRVEAEDVGVYFCMQGTHWPWTFGQGTKVEIKR
notes: Human IgG
B17: M22 (antibody, human IgG1, kappa, V domains shown)
VH: EVQLVESGGGLVQPGGSLRLSCAASGFTVSSNYMSWVRQAPGKGLEWVSVIYSGGTTYYADSVKGRFTISRHNSKNTLYLQMNSLRAEDTAVYYCARDHDPDYGGYYMDVWGKGTTVTVSS
VL: B16 VL
notes: Human IgG
B18: M21 (antibody, human IgG1, kappa, V domains shown)
VH: EVQLVESGGGLVQPGGSLRLSCAASGFTVSSNYMSWVRQAPGKGLEWVSVIYSGGSTYYADSVKGRFTISRDNSKNTLYLQMNSLRAEDTAVYYCARDQEHYFDGSGYYVDYWGQGTLVTVSS
VL: B16 VL
notes: Human IgG
B19: M4 (antibody, human IgG1, lambda, V domains shown)
VH: QLQLQESGPGLVKPSETLSLTCTVSGGSISSSSYYWGWIRQPPGKGLEWIGSIYYSGSTHYNPSLKRRVTISEDTSKNQFSLKLSSVTAADTAVYYCARGVVEVRGNHYYYYHMDAWGKGTTVTVSS
VL: QSVLTQPPSVSGAPGQGVTISCTGSSSNIGAGYDVHWYQQLPGSAPKFFIYGSNNRPSGVPDRFSGSKSGTSASLAITGLQAEDEADYYCQSYDSSLSGSGVFGGGTKLTVLG
notes: Human IgG

Legend:
[1] = target: T1, 100 aa-long synthetic MUC1 peptide (…)5; assay: ELISA titration on coated 100-mer peptide, EC50 approximated
T1 construct: also called 100-mer; vaccine 100-mer peptide
Excerpt: (§1) Heavy and light chains of antibodies reactive against MUC1 were generated from plasma of individuals vaccinated with a 100 aa-long synthetic MUC1 peptide (100-mer) representing the unglycosylated tumor associated MUC1 antigen (Kimura et al., 2013, Cancer Prev. Res. (Phila.), 6:18-26). Binding of monoclonal antibodies produced by combinatorial pairing of chains was characterized by ELISA using the vaccine 100-mer peptide consisting of the following sequence ([…])₅ (SEQ ID NO: 2). Briefly, 96-well high-binding ELISA plates were coated with 50 μl of the peptide diluted in carbonate buffer at 2 μg/ml. The wells were washed then blocked with 5% fat-free milk in phosphate-buffered saline (PBS). Antibodies were diluted in 5% milk in PBS with 0.1% TWEEN 20 (PBS-T) and then added to the peptide-coated, blocked wells and incubated at 37° C. for 2 hours, after which the wells were washed. Binding of antibody was probed with an anti-human IgG goat antibody conjugated to horseradish peroxidase (HRP), and signal was detected with 3,3′,5,5′-tetramethylbenzidine (TMB) substrate, which was neutralized with an acid, then the 450 nm absorbance was read. […] Additionally, the EC₅₀ of each antibody was approximated by ELISA titration (Table 1).

[2] = target: T2, SEQ ID NO: 346 glycopeptide with TF-antigen at Thr16; assay: ELISA on coated glycopeptide, antibody 0.01 mg/ml, mean of 3
T2 construct: also called T16^TF
T2 peptide: HGVTSAPDTRPAPGST(Galβ1‑3GalNAc)APP
Excerpt: (§2) Selected antibodies from Table 1 were further characterized for binding to synthetic MUC1 glycopeptides that were synthesized with the GalNac or GaNac-Gal carbohydrates on various serines and threonines along the MUC1 tandem repeat. If placed within the specific epitope recognized by an antibody, the antibody would not bind that particular glycopeptide.

[3] = target: T3, SEQ ID NO: 346 glycopeptide with TF-antigen at Ser5 (not fully specified (residue 5)); assay: as above
T3 construct: also called S5^TF
T3 peptide: HGVTSAPDTRPAPGSTAPP
Excerpt: as §2

[4] = target: T4, Synthetic peptide HGVTSAPDTRPAPGSTAPP; assay: ELISA on coated peptide, antibody 0.01 mg/ml, mean of 3
T4 construct: Unglycosylated; also called 346; MUC1 repeat
T4 peptide: HGVTSAPDTRPAPGSTAPP
Excerpt: as §2

[5] = target: T5, Synthetic peptide (GVTSAPDTRPAPGSTAPPAH)2; assay: as above
T5 peptide: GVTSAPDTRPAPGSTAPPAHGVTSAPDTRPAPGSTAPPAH
Excerpt: as §2

[6] = target: T6, SEQ ID NO: 346 glycopeptide with TF-antigen at Thr4; assay: ELISA on coated glycopeptide, antibody 0.01 mg/ml, mean of 3
T6 construct: also called T4^TF
T6 peptide: HGVT(Galβ1‑3GalNAc)SAPDTRPAPGSTAPP
Excerpt: as §2

[7] = target: T1, 100 aa-long synthetic MUC1 peptide (…)5; assay: ELISA on coated 100-mer peptide
Excerpt: as §1

[8] = target: T7, SEQ ID NO: 346 glycopeptide with TF-antigen at Thr9; assay: ELISA on coated glycopeptide, antibody 0.01 mg/ml, mean of 3
T7 construct: also called T9^TF
T7 peptide: HGVTSAPDT(Galβ1‑3GalNAc)RPAPGSTAPP
Excerpt: as §2

[9] = target: T8, SEQ ID NO: 346 glycopeptide with TF-antigen at Thr4 and Thr9; assay: as above
T8 construct: also called T4^TF/T9^TF
T8 peptide: HGVT(Galβ1‑3GalNAc)SAPDT(Galβ1‑3GalNAc)RPAPGSTAPP
Excerpt: as §2

| Binder | EC50 [1] [ng/mL] | ELISA absorbance at 450 nm [2] [absorbance] | ELISA absorbance at 450 nm [3] [absorbance] | ELISA absorbance at 450 nm [4] [absorbance] | ELISA absorbance at 450 nm [5] [absorbance] | ELISA absorbance at 450 nm [6] [absorbance] | binding result [7] | ELISA absorbance at 450 nm [8] [absorbance] | ELISA absorbance at 450 nm [9] [absorbance] |
| --- | --- | --- | --- | --- | --- | --- | --- | --- | --- |
| B1 | 11 | 2.2 | 1.3 | 2.2 | 3.3 | – | – | – | – |
| B2 | 2 | 2.4 | 2.1 | 2.1 | 2.9 | 1.6 | – | – | – |
| B3 | – | 2.5 | 2.7 | 2.4 | 3.3 | 1.5 | binds | – | – |
| B4 | 4 | 2.5 | 2.1 | 2.1 | 3 | 1.6 | – | – | – |
| B5 | 2 | – | – | – | – | – | – | – | – |
| B6 | 4 | – | – | – | – | – | – | – | – |
| B7 | – | – | – | – | – | – | binds | – | – |
| B8 | – | 2.5 | 2.4 | 2 | 2.9 | 1.7 | binds | – | – |
| B9 | 2 | – | – | – | – | – | – | – | – |
| B10 | 4 | – | – | – | – | – | – | – | – |
| B11 | – | – | – | – | – | – | binds | – | – |
| B12 | 10 | – | – | – | – | – | – | – | – |
| B13 | 5 | – | – | – | – | – | – | – | – |
| B14 | 12 | – | – | – | – | – | – | – | – |
| B15 | 100 | – | – | – | – | – | – | – | – |
| B16 | 4 | – | 2.1 | 1.9 | 2.8 | 2 | – | 1.9 | 1.9 |
| B17 | 7 | – | 2.2 | 2.1 | 3.1 | 2.2 | – | 2.3 | 2.3 |
| B18 | 11 | – | 2.1 | 2.1 | 3 | 2.1 | – | 2.1 | 2.2 |
| B19 | 4 | – | – | – | – | – | – | – | – |
